Target: rabbit muscle fructose-1,6-bisphosphate aldolase A D128V (rabbit)
Assay: AUC

## rabbit muscle fructose-1,6-bisphosphate aldolase A D128V (enzyme)
  stoichiometry N: 2
